According to patent publication US20060287229A1, “Novel CD40 variants” (priority 2004, published 2006):
Entries after “also recorded” stand apart in the source; their conditions may differ.

What was measured:
K562 cells [1] = assay: RT-PCR of CD40 splice forms in K562 cells treated with etoposide; format: cell-based; conditions: 20 μM Etoposide, various time intervals
Method: Samples of RT reactions of K562 treated with etoposide were prepared and used for PCR using CD40 primers (35 cycles). Etoposide (Sigma) is known as double-stranded DNA breakage and apoptosis inducing agent. The RT reactions were checked before the analysis to exclude possible genomic contamination and to ensure similar cDNA concentrations in the different samples, using quantitation with GAPDH (not shown).

K562 cells [2] = assay: Caspase activation in K562 cells (immunoblot with anti cleaved PARP antibody); format: cell-based; conditions: 25 μM etoposide, 17 hrs
Method: For this purpose K562 cells were treated with 25 μM etoposide for 17 hrs, and the activation of caspases, one of the hallmarks of apoptosis, was measured. To measure caspase activation, the cells were lysed, immunoblotted and PARP, a known substrate for caspase-3, was probed using anti cleaved PARP antibody (Cell Signaling, Beverly, Mass.).

[3] = tested on: RANTES secretion via the CD40-CD154 pathway; assay: RANTES cell assay (HPMC cells overlaid with mouse fibroblasts/CD154-mouse fibroblasts, ELISA RANTES test); format: cell-based, human; conditions: for dose response of inhibition of RANTES secretion (in words): FIG. 18G: CD154 ligand present, high cell number 10,000; for level of cytokine RANTES secretion (summary statement): human peritoneal cells plus mouse fibroblasts expressing CD154 ligand
Method: Skipping 5 protein was administered to a mixture of human peritoneal cells (HPMC cells), which express the CD40 receptor on their membrane, and mouse fibroblasts transfected to express the CD154 ligand. The ability of the soluble skipping 5 protein to compete with the CD40 membrane-bound receptor for binding to the CD154 ligand presented on the mouse fibroblasts was thus tested. This ability was measured by determining the resultant level of the cytokine RANTES, which is a cytokine indicative of T cell activation, as compared to when a positive control of interferon (which raises the level of RANTES via a CD40-related pathway) was administered alone.
HPMC cells were grown in M199+10% FCS (Biological Industries, Bet Ha'emek, Israel), trypsinized (using trypsine from Biological Industries, Bet Ha'emek, Israel, 5 ml/75 cm^2 cell culture flask), and recultured into 96-well plates. Cell should reach at least 80% confluence before further use.
Mouse fibroblasts/CD154-mouse fibroblasts were grown in DMEM+10% FCS (Biological Industries). Cells were trypsinized, pelleted (5 min 500 at rpm), counted (½ vol cells+½ vol trypan blue) and resuspended in M199+10% FCS. Cells were then diluted (10,000 or 5000 cells per ml).
CD40 proteins/antibodies were prepared in various concentrations in PBS according to the desired dose response/treatment (volume of 1 reaction should not exceed 20 microliters), followed by adding the same volume of PBS to the negative and positive controls.
The CD40 protein was added to 100 microliters of mouse fibroblasts or CD154-mouse fibroblasts in eppendorf tubes (final volume dependant on duplicates/triplicates) and incubated at R.T for 1 h at 200 rpm (rotation during incubation)
During this incubation time the HPMC were prepared, by removing medium and washing cells twice, and adding 100 microliters of fresh M199+10% FCS with or without 100 U/ml IFN (PeproTech, 50U/μl).
The CD40 L cells mixtures were overlaid on the HPMC (110 ul/well) and incubated O.N (at 37° C., 5% CO2).
100 microliters were removed from supernatant and placed into new 96 well plates, followed by diluting the samples 1/10 in M199+10% FCS and using diluted samples for the ELISA RANTES test.
The cells in the experiment plate were checked for viability.

human CD154 = target: T1, human CD154 (Homo sapiens, UniProt P29965); assay: FACS analysis of sCD40 binding to mouse fibroblasts expressing human CD154; conditions: Fc tagged proteins, 1-50 μg/ml, 4° C., 60 min; mouse fibroblasts stably transfected with full length human CD154
T1 construct: stably transfected with full length human CD154; expressed in transfected cells; host or cells: mouse fibroblasts, stably transfected
T1 sequence (P29965 1-261): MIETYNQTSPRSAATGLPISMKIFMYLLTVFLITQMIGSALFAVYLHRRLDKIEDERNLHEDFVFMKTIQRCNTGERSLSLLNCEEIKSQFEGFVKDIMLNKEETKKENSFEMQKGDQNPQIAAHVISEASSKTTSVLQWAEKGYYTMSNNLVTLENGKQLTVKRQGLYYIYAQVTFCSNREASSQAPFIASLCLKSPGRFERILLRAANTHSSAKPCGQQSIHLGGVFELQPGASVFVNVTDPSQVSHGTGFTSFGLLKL
Method: 10^6 mouse fibroblasts (stably transfected with full length human CD154) were incubated with either the known CD40 soluble variant, sCD40 WT (panel C, FIG. 17), the variant CD40-skipping 6 (panel A, FIG. 17) or the variant CD40-skipping 5 (panel B, FIG. 17). All CD40 variants were Fc tagged, and present at a concentration of 1-50 μg/ml at 4° C. for 60 min in total volume of 100 μl (0.5×10^6 cells). […] Analysis was performed using BD FACsCalibur. Panel E in FIG. 17 summarizes the mean fluorescence shift, as plotted versus various concentrations of CD40 protein.
Briefly, the FACS protocol was performed as follows. Mouse fibroblasts were trypsinized, and washed twice in PBS; cells were centrifuged at 1500 rpm for 10 min between washes. Next, the cells were re-suspended in FACS buffer (0.2% BSA and 0.02% sodium azide diluted 1/10 in PBS) to give 5-10×10^6 cells mL. Cells were placed in FACS test-tubes at a volume of 100 or 200 microliters per tube. […]
Next, 2 μL (1:50) anti CD40 non-blocking antibody (EA-5 mouse IgG1 PE-conjugated, obtained from Calbiochem) or controls (same isotype PE conjugated) were added to the tubes, and incubated for 30 min at 4° C. […] Next, 0.5 mL PBS was added to tubes, which were read in a FACS machine (BD FACSCalibur). […]
For this experiment, the controls included performing parallel assays with: mouse fibroblasts not expressing hCD154; non-relevant Fc (EA5, which is a mouse anti-CD40 antibody, see Malmborg Hager et al., Scandinavian J. 1 mm. 57:517-524 (2003) or non-Fc tagged proteins or purification mock; known CD40 soluble protein; secondary Ab only and isotype control only (isotype refers to an antibody control, featuring the same type of antibody but one which is not able to bind CD40). The axes are as follows: Y=cell counts; X=log scale of fluorescence intensity. M=A marker placed above the peak of positively stained cells on the histogram plot which provide the statistics of the stained population.

[4] = FIG. 18C: HPMC cells plus mouse fibroblasts expressing CD154, with interferon
[5] = FIG. 18E: fixed concentration 200 nM sCD40 protein, varying number of CD154+ mouse fibroblasts
[6] = FIGS. 18A-C, complete system with INF and CD154 mouse fibroblasts

COc1cc([C@@H]2c3cc4c(cc3[C@@H](O[C@@H]3O[C@@H]5CO[C@@H](C)O[C@H]5[C@H](O)[C@H]3O)[C@H]3COC(=O)[C@H]23)OCO4)cc(OC)c1O [Etoposide]
expression levels of secreted CD40 splice variant skipping exon 5 (RT-PCR) (K562 cells [1]): increase
known wild type CD40 expression levels (RT-PCR) (K562 cells [1]): decrease
cleaved PARP (caspase activation) (K562 cells [2]): appearance of a band in the expected size

WT-sCD40-Fc: known CD40 extracellular domain (soluble, truncated) fused to Fc of IgG1 [reference compound]
Rantes level [3, 4]: approximately 1000 pg/ml
inhibition of Rantes level [3, 4]: 50%
inhibition of RANTES secretion [3, 5]: 40-100%
dose response of inhibition of RANTES secretion (in words) [3]: inhibitory effect
effect on RANTES secretion (in words) [3, 6]: inhibitory properties
sCD40 binding to membrane CD154 (FACS) (human CD154): significant binding

known truncation product derived from known CD40: known CD40 extracellular domain without transmembrane domain, a simple truncation product of known CD40 [reference compound]
level of cytokine RANTES secretion (summary statement) [3]: decreased level

B1: Skip5: soluble CD40 splice variant lacking exon 5, SEQ ID NO:1, unique tail amino acids 136-160 (protein, listed as Homo sapiens)
chain: MVRLPLQCVLWGCLLTAVHPEPPTACREKQYLINSQCCSLCQPGQKLVSDCTEFTETECLPCGESEFLDTWNRETHCHQHKYCDPNLGLRVQQKGTSETDTICTCEEGWHCTSEACESCVLHRSCSPGFGVKQIAVRPKTWLCNRQAQTRLMLSVVPRIG
dose response of inhibition of RANTES secretion (in words) [3]: did not cause any inhibition
level of cytokine RANTES secretion (summary statement) ([3]; listed as CD40 skipping exon 5 variant): increased level
level of cytokine RANTES secretion (summary statement) ([3]; listed as skipping 5): raise the level of secretion

B2: Skipping 6-sCD40-Fc: Fc-tagged CD40 skipping exon 6 variant (protein)
chain: EPPTACREKQYLINSQCCSLCQPGQKLVSDCTEFTETECLPCGESEFLDTWNRETHCHQHKYCDPNLGLRVQQKGTSETDTICTCEEGWHCTSEACESCVLHRSCSPGFGVKQIATGVSDTICEPCPVGFFSNVSSAFEKCHPWTRSPGSAESPGGDPHHLRDPVCHPLGAGLYQKGGQEANQ
modifications: left off: a dimerising Fc or GST
notes: Fc-tagged CD40 skipping exon 6 variant
dose response of inhibition of RANTES secretion (in words) [3]: inhibitory effect
sCD40 binding to membrane CD154 (FACS) (human CD154): significant binding

B3: Skipping 5-sCD40-Fc: CD40 skipping exon 5 splice variant fused downstream to the Fc chain of Immunoglobulin IgG1, expressed in baculovirus (protein)
chain: EPPTACREKQYLINSQCCSLCQPGQKLVSDCTEFTETECLPCGESEFLDTWNRETHCHQHKYCDPNLGLRVQQKGTSETDTICTCEEGWHCTSEACESCVLHRSCSPGFGVKQIAVRPKTWLCNRQAQTRLMLSVVPRIG
modifications: left off: a dimerising Fc or GST
notes: CD40 skipping exon 5 splice variant fused downstream to the Fc chain of Immunoglobulin IgG1, expressed in baculovirus
effect on RANTES secretion (in words) [3, 5]: stimulatory effect
effect on RANTES level in the absence of CD154 (in words) ([3]; FIGS. 18A and B: HPMC cells only or with untransfected mouse fibroblasts, Interferon dependent): agonistic effect; also recorded: agonistic properties
effect on RANTES secretion (in words) [3, 6]: no inhibition
sCD40 binding to membrane CD154 (FACS) (human CD154): different properties
